Results: US6468985B1, “Retinoblastoma protein-interacting zinc finger proteins” (The Burnham Institute, priority 1994, dated 2002)

Assays:
[1] = target: E1A 12S (Human adenovirus C serotype 5, UniProt P03255)
Method: To investigate this relationship further, the anti-RIZ antiserum raised against the GST-RIZ (245-573) fusion protein containing the cr2, ce1 and part of the cr1 motifs, was tested for cross reactivity with E1A. For these experiments, E1A was labeled with ^35S-methionine during in vitro transcription/translation using methods described above.
To further verify binding between anti-RIZ and E1A, the cross reactive antibodies from the anti-RIZ antiserum were purified by affinity chromatography on a column containing E1A 12S protein.
E1A 12S, truncated at residue 223 (E1A223) was produced by generating a PCR fragment of E1A using an upstream SP6 primer (Stratagene) a downstream E1A primer 5′-[sequence] […] The resulting PCR fragment was cloned into pCRSK+, which was used to direct the synthesis of the mutant E1A 12S protein by SP6 in vitro transcription/translation. The full length E1A 12S (E1A243) was produced from vector pGEM1Ad5E1A12S by in vitro transcription/translation as described above for the other vectors.
The regions of RIZ and E1A 12S that contain the ce1 epitope show significant amino acid sequence homology (FIG. 2A). The sequence ^312EDLLEE (SEQ ID NO: 20) in RIZ and the sequence ^224EDLLNE (SEQ ID NO: 21) in E1A are likely sites for the ce1 epitope. To evaluate this possibility, an 11 amino acid peptide encompassing residues 310-320 in RIZ (ce1 peptide) [sequence] […]

[2] = target: T1, RIZ (Rattus norvegicus, UniProt Q63755); assay: binding of anti-RIZ antiserum / anti-ce1 antibody to RIZ and RIZ truncation mutants
T1 construct: made in house; host or cells: in vitro transcription/translation (rabbit reticulocyte lysate)
T1 sequence (Q63755 1-318): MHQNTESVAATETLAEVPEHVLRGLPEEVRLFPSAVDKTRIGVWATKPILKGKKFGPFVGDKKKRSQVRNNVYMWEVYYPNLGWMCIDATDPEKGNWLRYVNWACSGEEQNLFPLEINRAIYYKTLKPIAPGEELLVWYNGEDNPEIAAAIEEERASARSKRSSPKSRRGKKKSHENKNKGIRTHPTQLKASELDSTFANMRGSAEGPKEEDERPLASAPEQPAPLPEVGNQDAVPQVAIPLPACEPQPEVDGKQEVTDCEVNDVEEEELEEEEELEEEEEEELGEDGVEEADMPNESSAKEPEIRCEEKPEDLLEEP
Method: Anti-RIZ antibodies purified from the E1A affinity column were tested for binding to RIZ and E1A. […] The E1A-affinity purified RIZ antibodies were designated “anti-ce1” for cross reacting E1A antigen.
Anti-ce1 antibodies were tested for binding to various deletion mutants of RIZ and E1A 12S in order to map the location of the ce1 epitope on each molecule.
To evaluate this possibility, an 11 amino acid peptide encompassing residues 310-320 in RIZ (ce1 peptide) [sequence] (SEQ ID NO: 7) and an overlapping 11 amino acid control peptide encompassing residues 304-314 containing the cr2 core motif of RIZ, peptide [sequence] (SEQ ID NO: 6), were synthesized by solid phase peptide synthesis and tested for their ability to block binding between anti-ce1 antibody and RIZ or E1A.

[3] = target: T2, p56EERb (Homo sapiens, UniProt P06400); assay: cDNA expression library filter screening with p56EERb, binding-specificity control; conditions: p56EERb preincubated with 5 μM poly-L-lysine or 50 μM T- or K-peptide
T2 construct: p56 Rb: 56 kD fragment of Rb from a.a. position 379-928; made in house; host or cells: E. coli BL21(DE3)pLysS
T2 sequence (P06400 379-928): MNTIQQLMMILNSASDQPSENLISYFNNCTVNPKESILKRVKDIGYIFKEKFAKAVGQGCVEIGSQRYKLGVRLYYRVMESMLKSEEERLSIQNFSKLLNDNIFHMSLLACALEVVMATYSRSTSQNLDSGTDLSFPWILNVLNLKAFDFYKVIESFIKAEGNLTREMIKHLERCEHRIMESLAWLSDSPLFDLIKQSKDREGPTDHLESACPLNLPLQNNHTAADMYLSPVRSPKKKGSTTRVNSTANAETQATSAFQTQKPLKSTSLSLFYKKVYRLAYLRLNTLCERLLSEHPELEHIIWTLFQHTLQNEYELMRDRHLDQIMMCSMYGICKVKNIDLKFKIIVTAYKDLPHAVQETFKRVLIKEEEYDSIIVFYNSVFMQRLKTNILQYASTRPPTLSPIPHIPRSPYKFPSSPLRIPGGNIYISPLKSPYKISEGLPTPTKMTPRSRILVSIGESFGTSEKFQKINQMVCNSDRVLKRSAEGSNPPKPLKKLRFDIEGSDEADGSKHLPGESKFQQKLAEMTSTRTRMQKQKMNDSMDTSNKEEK
Method: A rat RIZ cDNA was obtained from a rat neonatal cardiac myocyte λgt11 cDNA expression library (Zhu et al., Mol. Cell Biol., 13:4432 (1993), which is incorporated herein by reference). The library was screened using a 56 kD fragment containing the pocket binding site of Rb and the EE epitope (p56EERb) according to previously described methods (Macgregor et al., Oncogene, 5:451-458 (1991), which is incorporated herein by reference).
For binding-specificity control, p56EERb was preincubated with 5 μM poly-L-lysine (Sigma) or 50 μM T- or K-peptide (Huang et al., supra, 1991) before applying onto filters. T peptide is an 18 residue synthetic peptide derived from residues 101-118 of SV40 large T antigen, while K peptide is the same as T peptide except for a lysine residue substituted for a glutamic acid residue at position 107 of SV40 large T antigen (Huang et al., supra, 1991).
The binding of p56EERb to a clone expressing a RIZ protein was detected using an anti-EE monoclonal antibody obtained as spent culture medium of the anti-EE hybridoma (Walter, supra, 1986) and an alkaline phosphatase conjugated goat anti-mouse IgG antibody specific for mouse immunoglobulin (Promega; Madison Wis.).

[4] = target: T3, 35S-RIZ (1-575)^307-Gly (rat, UniProt Q63755 1-575, 35S label); assay: immunoprecipitation with anti-Rb antiserum, SDS-PAGE, autoradiography
T3 construct: In vitro transcribed/translated; also called glycine mutant; cr2 mutant
T3 sequence: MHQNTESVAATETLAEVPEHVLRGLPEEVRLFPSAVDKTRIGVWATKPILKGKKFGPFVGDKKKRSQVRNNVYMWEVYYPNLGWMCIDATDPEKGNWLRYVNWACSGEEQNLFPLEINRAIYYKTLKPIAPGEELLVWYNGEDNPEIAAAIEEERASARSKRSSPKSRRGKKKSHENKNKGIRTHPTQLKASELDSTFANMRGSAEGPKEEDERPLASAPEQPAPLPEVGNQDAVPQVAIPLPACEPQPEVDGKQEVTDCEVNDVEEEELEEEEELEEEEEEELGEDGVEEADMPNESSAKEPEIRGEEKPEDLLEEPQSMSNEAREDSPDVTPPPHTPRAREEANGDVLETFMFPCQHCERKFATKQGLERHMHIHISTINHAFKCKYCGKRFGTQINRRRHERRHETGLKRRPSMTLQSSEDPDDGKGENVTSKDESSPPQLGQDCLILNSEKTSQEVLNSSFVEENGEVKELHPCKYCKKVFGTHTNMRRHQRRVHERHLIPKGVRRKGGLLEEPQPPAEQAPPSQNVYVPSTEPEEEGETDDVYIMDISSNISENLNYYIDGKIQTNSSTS

[5] = target: 35S-labeled full length RIZ (rat, UniProt Q63755 1-1706, 35S label); assay: GST fusion protein with in vitro translated labeled protein
[6] = target: T4, hypophosphorylated Rb (pRb) from HT1080 cell extract (UniProt P06400 2-928, hypophosphorylated form); assay: glutathione-agarose pull-down from HT1080 cell extract with 4 ug GST-RIZ; anti-Rb immunoblot
T4 construct: Endogenous protein in a cell lysate; also called Rb from HT1080 cells; fastest migrating forms of Rb
T4 sequence (looked up): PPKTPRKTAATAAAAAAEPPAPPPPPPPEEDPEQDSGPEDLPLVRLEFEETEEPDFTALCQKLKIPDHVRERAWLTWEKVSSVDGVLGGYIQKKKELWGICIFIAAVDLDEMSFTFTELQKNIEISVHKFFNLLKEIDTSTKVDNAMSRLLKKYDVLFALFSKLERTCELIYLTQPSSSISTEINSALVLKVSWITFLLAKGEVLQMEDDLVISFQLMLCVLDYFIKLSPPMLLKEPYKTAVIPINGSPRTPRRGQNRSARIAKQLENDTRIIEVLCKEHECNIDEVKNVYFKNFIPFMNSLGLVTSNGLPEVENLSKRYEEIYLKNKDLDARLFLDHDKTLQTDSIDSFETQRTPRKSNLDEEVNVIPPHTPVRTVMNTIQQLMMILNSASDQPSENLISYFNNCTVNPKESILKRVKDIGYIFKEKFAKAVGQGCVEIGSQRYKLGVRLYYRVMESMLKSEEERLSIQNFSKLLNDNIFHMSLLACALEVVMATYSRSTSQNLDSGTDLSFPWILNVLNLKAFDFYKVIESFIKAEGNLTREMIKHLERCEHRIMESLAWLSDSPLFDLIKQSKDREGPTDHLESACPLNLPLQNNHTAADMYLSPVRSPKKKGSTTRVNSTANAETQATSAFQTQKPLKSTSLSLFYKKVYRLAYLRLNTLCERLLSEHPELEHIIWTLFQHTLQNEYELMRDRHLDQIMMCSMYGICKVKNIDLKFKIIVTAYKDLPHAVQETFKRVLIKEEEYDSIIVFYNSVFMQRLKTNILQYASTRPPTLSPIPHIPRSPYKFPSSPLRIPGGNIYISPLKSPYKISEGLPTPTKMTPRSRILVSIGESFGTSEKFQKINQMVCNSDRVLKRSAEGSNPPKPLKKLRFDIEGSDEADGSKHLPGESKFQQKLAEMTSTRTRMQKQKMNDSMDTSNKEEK
Method: The cells were grown in DMEM supplemented with 100 fetal calf serum. Cells were lysed in ELB buffer (50 mM HEPES, pH 7.5, 250 mM NaCl, 0.1% NP-40) supplemented with 5 mM EDTA, 50 mM NaF, 1 mM Na orthovanadate, 1 mM of DTT, aprotinin, leupeptin, and PMSF. The lysate was cleared of cell debris by centrifugation at 12,000 rpm for 10 min in a microfuge.

Sequence of E1A 12S (P03255 1-139, added parts left off): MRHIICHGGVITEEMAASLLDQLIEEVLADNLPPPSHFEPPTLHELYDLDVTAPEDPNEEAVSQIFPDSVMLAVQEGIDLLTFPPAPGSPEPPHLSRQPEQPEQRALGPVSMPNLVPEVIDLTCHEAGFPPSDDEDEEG

KPEDLLEEPQS [ce1 peptide, 11 amino acid peptide encompassing residues 310-320 in RIZ]
inhibition of binding between anti-ce1 antibody and 35S-E1A 12S (E1A243) [1]: inhibited binding
inhibition of binding between anti-ce1 antibody and 35S-RIZ318 [2]: inhibited binding

poly-L-lysine
inhibition of binding of p56EERb to RIZ-expressing clones [3]: maintained their reactivity

B1: 56 kD fragment of Rb produced by bacterial expression from p56Rb plasmid (other, UniProt P06400 379-928, looked up)
chain: T2 sequence (P06400 379-928)
notes: range 379-928; Expressed in E. coli; also called 56 kD Rb
binding result [4]: no binding (tested: 33 nM Rb)

B2: purified rat RIZ (a.a. position 215-462) fused C-terminal to glutathionine S-transferase (GST) (other)
chain: PLASAPEQPAPLPEVGNQDAVPQVAIPLPACEPQPEVDGKQEVTDCEVNDVEEEELEEEEELEEEEEEELGEDGVEEADMPNESSAKEPEIRCEEKPEDLLEEPQSMSNEAREDSPDVTPPPHTPRAREEANGDVLETFMFPCQHCERKFATKQGLERHMHIHISTINHAFKCKYCGKRFGTQINRRRHERRHETGLKRRPSMTLQSSEDPDDGKGENVTSKDESSPPQLGQDCLILNSEKTSQEVLN
notes: not shown: glutathione S-transferase
binding result [5]: no binding
binding result [6]: binds
